Measurements as given in patent US20040106773A1 (priority 2003, published 2004).
Each block holds one molecule with its values, some of them ahead of it.

Columns and labels:
F-11 cells = conditions: DRG-like F-11 cells; cited from earlier work
rat PTH2R [1] = target: rat PTH2R (rat, UniProt P70555 25-546); test: cell-based or functional assay
rat PTH2R [2] = target: T1, rat PTH2R (Rattus norvegicus, UniProt P70555); test: cAMP SPA assay for PTH2R activation, rat PTH2R; assay type: cell-based; conditions: HEK293 cells expressing rat PTH2R, FIG. 4A
T1 construct: V5-His (appears only in the vector name); expressed in transfected cells
T1 sequence (P70555 25-546): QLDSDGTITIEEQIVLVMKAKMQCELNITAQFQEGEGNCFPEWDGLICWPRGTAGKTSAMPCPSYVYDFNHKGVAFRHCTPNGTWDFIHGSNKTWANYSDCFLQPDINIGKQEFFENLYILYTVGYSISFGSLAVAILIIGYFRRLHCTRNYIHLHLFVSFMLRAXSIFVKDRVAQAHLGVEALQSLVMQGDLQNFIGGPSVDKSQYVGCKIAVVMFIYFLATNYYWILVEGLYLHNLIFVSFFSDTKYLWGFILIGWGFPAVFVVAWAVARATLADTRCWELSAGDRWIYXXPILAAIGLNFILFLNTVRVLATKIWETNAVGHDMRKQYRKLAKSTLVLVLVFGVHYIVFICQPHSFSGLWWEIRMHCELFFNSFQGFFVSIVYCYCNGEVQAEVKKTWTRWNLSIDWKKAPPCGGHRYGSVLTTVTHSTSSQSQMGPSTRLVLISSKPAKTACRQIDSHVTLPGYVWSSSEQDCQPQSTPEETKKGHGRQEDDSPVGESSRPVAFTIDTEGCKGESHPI
Source text: (§1) HEK293 cells were transfected with rat and human PTH2R and cell lines that stably express the receptors were established and evaluated. One cell line was selected for each rat and human PTH2R and used for all the functional assays. Specifically, HEK293 cells were transfected with pCDNA3.1/V5-His-RatPTH2R plasmid DNA and pCDNA3.1-E/Uni-lacZ-HumanPTH2R plasmid DNA using FuGENE 6 transfection reagent (Roche Molecular Biochemicals). Three days after transfection, cells were put under selection with 800 μg/ml geneticin (G418, Gibco BRL). After three weeks of selection, single colonies were cloned using cloning cylinders. Cloned colonies were scaled up to T25 flasks. More than 10 cell lines for each plasmid were tested for function in the cAMP SPA assay.
(§2) HEK293PTH2R cells were seeded in a 96-well poly-D-lysine coated plate at 100,000 cells per well and cultured overnight. After washing with 200 μl of PBS and treating with 100 μl of 300 nM IBMX in assay medium (MEM without phenol red and FBS) at 37° C. for 10 min. The assay medium was then aspirated and the cells were washed with PBS. The cellular of cAMP was measured using cAMP SPA Direct Screening (Amersham/Pharmacia RPA559). Each concentration of ligand was repeated as triplicate.

human PTH2R [3] = target: T2, human PTH2R (Homo sapiens, UniProt P49190); test: cAMP SPA assay for PTH2R activation, human PTH2R; assay type: cell-based; conditions: HEK293 cells expressing human PTH2R, FIG. 4B
T2 construct: expressed in transfected cells
T2 sequence (P49190 25-550): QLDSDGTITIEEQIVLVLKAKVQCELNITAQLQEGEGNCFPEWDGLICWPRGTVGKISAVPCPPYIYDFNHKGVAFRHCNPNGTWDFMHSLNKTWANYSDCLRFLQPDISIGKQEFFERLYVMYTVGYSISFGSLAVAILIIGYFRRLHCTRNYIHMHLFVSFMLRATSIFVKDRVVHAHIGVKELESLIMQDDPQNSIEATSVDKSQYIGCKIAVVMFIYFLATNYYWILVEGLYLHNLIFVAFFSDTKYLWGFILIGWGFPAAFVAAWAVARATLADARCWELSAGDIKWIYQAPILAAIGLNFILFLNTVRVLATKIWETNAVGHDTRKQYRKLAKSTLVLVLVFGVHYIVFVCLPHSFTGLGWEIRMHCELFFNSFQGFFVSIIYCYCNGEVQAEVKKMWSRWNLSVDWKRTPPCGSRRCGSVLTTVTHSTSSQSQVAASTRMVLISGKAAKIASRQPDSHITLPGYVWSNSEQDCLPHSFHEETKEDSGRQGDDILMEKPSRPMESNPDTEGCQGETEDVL
Source text: as §1, §2

rat PTH2R [4] = target: T1, rat PTH2R; test: Measurement of [Ca2+]i using the FLIPR, rat PTH2R; assay type: cell-based
Source text: as §1
(§3) HEK293 cells were seeded into […] clear-base 96 well plates (BD Biocoat) coated with poly-D-lysine at a density of 100,000 cells per well in MEM, and cultured overnight.
(§4) Curve-fitting and parameter estimation were carried out using Graph Pad Prism, 3.00 (GraphPad Software Inc., California, U.S.A.).

human PTH2R [5] = target: T2, human PTH2R; test: Measurement of [Ca2+]i using the FLIPR, human PTH2R; assay type: cell-based; conditions: human PTH2R expressing HEK293 cells
Source text: as §1, §3, §4

human PTH2R [6] = target: human PTH2R (human, UniProt P49190 25-550); test: cell-based or functional assay
human PTH2R (human, UniProt P49190 25-550), sequence (P49190 25-550): as above

rat PTH2R (rat, UniProt P70555 25-546), sequence (P70555 25-546): as the sequence (P70555 25-546) above

logEC50, cAMP increase (cAMP SPA assay) in HEK293 cells stably expressing rat PTH2R (rat PTH2R [1]): -9.3
maximal level of cAMP (pmol/100,000 cells) (rat PTH2R [1]): < 29
Molecule: human PTH (1-34) (from UniProt P01270 32-65) (peptide)

maximum response compared to that of human TIP39 (rat PTH2R [4]; rat PTH2R expressing cells, [Ca2+]i FLIPR): ~30%
maximum response compared to that elicited by human TIP39 (human PTH2R [5]; [Ca2+]i FLIPR): 42±2%
Molecule: rat PTH(1-34)

maximal level of cAMP (pmol/100,000 cells) (rat PTH2R [1]): < 29
maximum [Ca2+]i response compared to that of human TIP39 (rat PTH2R [1]): 30%
Molecule: rat PTH(1-34) (from UniProt P04089 32-65) (peptide)

Continued, molecule first:

Molecule: bovine tuberoinfundibular peptide of 39 residues [bTIP39]
effect on cAMP (F-11 cells): increases cAMP

Molecule: human PTH(1-34)
relative potency, cAMP (rat PTH2R [2]): slightly less potent
relative potency, cAMP (human PTH2R [3]): slightly less potent than the other peptides
agonist character, [Ca2+]i response (rat PTH2R [4]; rat PTH2R expressing HEK293 cells): little response if any
agonist character, [Ca2+]i response (human PTH2R [5]): little response

B1: mouse tuberoinfundibular peptide of 39 residues (peptide)
peptide: SLALADDAAFRERARLLAALERRRWLDSYMQKLLLLDAP
logEC50, [Ca2+]i increase (FLIPR) (rat PTH2R [1]): -7.3
logEC50, cAMP increase (cAMP SPA assay) in HEK293 cells stably expressing rat PTH2R (rat PTH2R [1]): -9.9
logEC50, [Ca2+]i increase (FLIPR) (human PTH2R [6]): -7.8
logEC50, cAMP increase (cAMP SPA assay) in HEK293 cells stably expressing human PTH2R (human PTH2R [6]): -9.7
